Non-standard residues stand in square brackets, D forms with d. No end group written: not given here. pS = N[C@@H](COP(=O)(O)O)C(=O)O

Common to all, as to settings: both partners purified
The target in assay [1] is T1, Clathrin N-terminal domain (NTD) (human, UniProt Q00610 1-364).
T1 construct: clathrin heavy chain, N-terminal domain; also called Clathrin NTD; CLTC-NTD; source: E. coli BL21-Gold(DE3), purified (GSH or Ni2+ beads), tag removed with protease
T1 sequence: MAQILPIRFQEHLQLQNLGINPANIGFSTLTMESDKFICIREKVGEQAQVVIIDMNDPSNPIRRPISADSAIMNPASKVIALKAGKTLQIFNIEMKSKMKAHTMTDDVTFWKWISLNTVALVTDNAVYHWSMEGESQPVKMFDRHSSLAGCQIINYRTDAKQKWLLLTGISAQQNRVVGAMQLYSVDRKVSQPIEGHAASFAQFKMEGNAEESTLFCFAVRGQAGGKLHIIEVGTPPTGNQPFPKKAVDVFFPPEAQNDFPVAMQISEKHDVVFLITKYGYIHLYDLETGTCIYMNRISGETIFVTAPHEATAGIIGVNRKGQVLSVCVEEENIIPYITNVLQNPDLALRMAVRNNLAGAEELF
The assay can be described thus: fluorescence polarisation; displacement: unlabelled peptide diluted 1:1 in series and added to a pre-formed complex of protein domain and FITC-labelled probe peptide (5 nM in the measurement); 50 mM sodium phosphate pH 7.4, room temperature; KD calculated from the displacement curves; technical triplicates.

A further assay concerns the target T2, GGA1 VHS (human, UniProt Q9UJY5 17-147).
T2 construct: GGA1 VHS domain; limits in Dataset EV3; construct limits are in Dataset EV3; also called GGA1 VHS domain; source: E. coli BL21-Gold(DE3), purified, tag removed
T2 sequence (looked up): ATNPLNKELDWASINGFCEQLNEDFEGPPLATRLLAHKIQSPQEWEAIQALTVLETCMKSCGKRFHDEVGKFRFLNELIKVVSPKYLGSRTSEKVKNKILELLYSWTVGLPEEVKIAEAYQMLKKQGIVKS
Description: fluorescence polarisation; displacement of a FITC-labelled probe peptide (5 nM in the measurement) from the protein domain (1-2 fold over the probe's KD) by a dilution series of unlabelled peptide; room temperature; 50 mM sodium phosphate pH 7.4; KD calculated from the displacement curve; for KPNA4 ARM one probe for each pocket.

The next assay concerns the target T3, 14-3-3 Theta (human, UniProt P27348 1-245).
T3 sequence (looked up): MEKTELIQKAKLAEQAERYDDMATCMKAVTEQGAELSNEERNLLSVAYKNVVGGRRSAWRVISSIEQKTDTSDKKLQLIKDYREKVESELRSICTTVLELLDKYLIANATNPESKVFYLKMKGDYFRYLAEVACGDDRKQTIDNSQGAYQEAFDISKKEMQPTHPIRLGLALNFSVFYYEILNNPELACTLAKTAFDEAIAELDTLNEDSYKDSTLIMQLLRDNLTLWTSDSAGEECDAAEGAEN
The assay can be described thus: fluorescence polarisation; direct binding (saturation curve): 1:1 dilution series of the protein domain with 5 nM FITC-labelled peptide; room temperature; 50 mM sodium phosphate buffer pH 7.4; fitted to the quadratic equation. A general note: Polarisation of emitted light reports the rotation of a fluorescent probe.

Another assay has as its target T4, GGA1 VHS domain (human, UniProt Q9UJY5 17-147).
T4 construct: GGA1, VHS domain; source: E. coli BL21-Gold(DE3), purified (GSH or Ni2+ beads), tag removed by protease
T4 sequence (looked up): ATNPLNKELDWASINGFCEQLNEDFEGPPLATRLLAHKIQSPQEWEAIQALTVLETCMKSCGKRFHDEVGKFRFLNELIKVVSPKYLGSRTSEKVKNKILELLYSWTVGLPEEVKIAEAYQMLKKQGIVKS
The description is as above.

Another assay deals with T5, MAP1LC3A ATG8 (human).
T5 construct: MAP1LC3A, ATG8 domain; source: E. coli BL21-Gold(DE3), purified (GSH or Ni2+ beads), tag removed by protease
The description is as above.

For another assay, the target named is T6, GABARAPL2 ATG8 (human).
T6 construct: GABARAPL2, ATG8 domain; source: E. coli BL21-Gold(DE3), purified (GSH or Ni2+ beads), tag removed by protease
The assay is described as above.

For the next assay, the target named is MAP1LC3B ATG8 (human). The assay is described as above.
In assay [2] the target is T7, Clathrin N-terminal domain (NTD) (human, UniProt Q00610 1-364).
T7 construct: clathrin heavy chain, N-terminal domain; also called Clathrin NTD; CLTC-NTD; source: E. coli BL21-Gold(DE3), purified (GSH or Ni2+ beads), tag removed by protease
T7 sequence: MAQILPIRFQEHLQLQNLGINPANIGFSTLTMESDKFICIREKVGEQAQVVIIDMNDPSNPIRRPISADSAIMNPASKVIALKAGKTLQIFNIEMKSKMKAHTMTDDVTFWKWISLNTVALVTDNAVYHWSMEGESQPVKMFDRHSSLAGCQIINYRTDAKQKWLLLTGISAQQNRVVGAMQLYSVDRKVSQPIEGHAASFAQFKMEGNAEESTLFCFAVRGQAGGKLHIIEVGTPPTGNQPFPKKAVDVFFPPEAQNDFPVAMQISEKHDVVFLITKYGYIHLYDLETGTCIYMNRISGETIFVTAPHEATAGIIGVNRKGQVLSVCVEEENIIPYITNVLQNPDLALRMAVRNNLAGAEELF
Described as above.

Another assay deals with T8, FITC-HIV1_Gag (HIV-1 (printed as HIV1), also: FITC label, position not given here).
T8 chain: SLYPPLTSLR
The assay is described as above.

In a further assay the target is T9, RANBP2 RanBD4 (human).
T9 construct: the sheet prints 'RanBD1 4'); also called RANBP2 RanBD1 4; RAN2BP RanBD4; source: E. coli BL21-Gold(DE3), purified (GSH or Ni2+ beads), tag removed by protease
Described as above.

Assay [3] has as its target SNX27 PDZ domain, MBP-tagged (human, UniProt Q96L92 43-136). Described as above.
The target in a further assay is T10, AP2 µ2 (human, UniProt Q96CW1 1-435).
T10 construct: AP-2 complex subunit mu (AP2 µ2); also called AP2 μ2; source: E. coli BL21-Gold(DE3), purified (GSH or Ni2+ beads), tag removed by protease
T10 sequence (looked up): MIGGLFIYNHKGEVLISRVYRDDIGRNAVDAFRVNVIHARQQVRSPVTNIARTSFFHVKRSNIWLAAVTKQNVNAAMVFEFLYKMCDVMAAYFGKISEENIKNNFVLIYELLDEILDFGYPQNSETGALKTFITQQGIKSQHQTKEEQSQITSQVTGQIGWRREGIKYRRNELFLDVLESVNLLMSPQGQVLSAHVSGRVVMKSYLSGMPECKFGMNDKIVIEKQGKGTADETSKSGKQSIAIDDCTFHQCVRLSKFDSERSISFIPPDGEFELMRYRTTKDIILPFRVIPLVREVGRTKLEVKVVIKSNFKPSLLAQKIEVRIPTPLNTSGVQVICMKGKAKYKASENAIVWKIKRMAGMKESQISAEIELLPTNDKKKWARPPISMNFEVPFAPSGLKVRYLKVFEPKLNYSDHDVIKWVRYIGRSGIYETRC
The assay is described as above.

The next assay addresses T11, FITC-MYC (also: FITC label, position not given here).
T11 chain: PAAKRVKLD
The assay is described as above.

The next assay deals with T12, FITC-NCOR2 (also: FITC label, position not given here).
T12 chain: PKRTYDMMEGRVGRAI
Described as above.

A further assay concerns the target T13, TSG101 UEV domain (human, UniProt Q99816 2-145).
T13 sequence (looked up): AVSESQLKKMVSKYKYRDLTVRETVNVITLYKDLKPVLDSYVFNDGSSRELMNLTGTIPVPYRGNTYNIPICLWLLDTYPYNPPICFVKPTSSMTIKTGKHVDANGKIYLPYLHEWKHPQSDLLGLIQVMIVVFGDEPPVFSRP
The description is as above.

B1: GTSE1 692-707 peptide, unphosphorylated (peptide)
peptide: YGQLIDLSSPLIQLSPE
notes: not part of GTSE1; G2 and S phase-expressed protein 1 (GTSE1), human, residues 692-707; also called wild-type GTSE1; source: synthetic peptide (Glbiochem or Genecust)
B1: in assay [1], the dissociation constant (Kd) – broadly, a measure of binding affinity in units of concentration – was 91 µM.

B2: GTSE1_(145–160), phosphorylated (pS) (peptide)
chain: INLFEKEKEMKKSPTS
modifications: also: phosphoserine/threonine, site not given here
As to B2, the Kd in the assay with GGA1 VHS is 640 µM.

B3: FITC-2BTP (peptide)
chain: RQRSAP
modifications: also: FITC label, position not given here
B3: the Kd with 14-3-3 Theta was found to be 27.8 µM.

B4: FITC-IGF2R (peptide)
chain: DDSDEDLLHI
modifications: also: FITC label, position not given here
As to B4, the Kd in the assay with GGA1 VHS domain was determined as 31 µM.

B5: GTSE1 692-707 peptide phosphorylated at S699 (peptide)
peptide: YGQLIDLS[pS]PLIQLSPE
notes: not part of GTSE1; G2 and S phase-expressed protein 1 (GTSE1), human, residues 692-707; also called pS699 GTSE1; source: synthetic peptide (Glbiochem or Genecust)
For the molecule B5, in assay [1], the Kd was 109 µM.

B6: FITC-SQSTM1 (peptide)
chain: DDDWTHLSSK
modifications: also: FITC label, position not given here
Take B6: the figures for the Kd with MAP1LC3A ATG8, with GABARAPL2 ATG8 and with MAP1LC3B ATG8 were 1.36 µM, 11 µM and 2.5 µM, respectively.

B7: FITC-NSP3 (peptide)
chain: SVDLITFDSV
modifications: also: FITC label, position not given here
B7: the Kd in assay [2] turned out to be 26 µM.

B8: GTSE1 692-707 peptide phosphorylated at S698 (peptide)
peptide: YGQLIDL[pS]SPLIQLSPE
notes: not part of GTSE1; G2 and S phase-expressed protein 1 (GTSE1), human, residues 692-707; also called pS698 GTSE1; source: synthetic peptide (Glbiochem or Genecust)
As for B8, in assay [1], the Kd was 123 µM.

B9: GTSE1 692-707 peptide phosphorylated at S705 (peptide)
peptide: YGQLIDLSSPLIQL[pS]PE
notes: not part of GTSE1; G2 and S phase-expressed protein 1 (GTSE1), human, residues 692-707; also called pS705 GTSE1; source: synthetic peptide (Glbiochem or Genecust)
Take B9: the Kd in [1] is 105 µM.

B10: PDCD6IP Alix V domain (domain or fragment)
chain: PVSVQQSLAAYNQRKADLVNRSIAQMREATTLANGVLASLNLPAAIEDVSGDTVPQSILTKSRSVIEQGGIQTVDQLIKELPELLQRNREILDESLRLLDEEEATDNDLRAKFKERWQRTPSNELYKPLRAEGTNFRTVLDKAVQADGQVKECYQSHRDTIVLLCKPEPELNAAIPSANPAKTMQGSEVVNVLKSLLSNLDEVKKEREGLENDLKSVNFDMTSKFLTALAQDGVINEEALSVTELDRVYGGLTTKVQESLKKQEGLLKNIQVSHQEFSKMKQSNNEANLREEVLKNLATAYDNFVELVANLKEGTKFYNELTEILVRFQNKCSDIVFARKTER
For B10, in the assay with FITC-HIV1_Gag, the Kd stood at 3.6 µM.

B11: FITC-C7orf25 (peptide)
chain: KEALATPLPK
modifications: also: FITC label, position not given here
In the case of B11, in the assay with RANBP2 RanBD4, the Kd stood at 22 µM.

B12: FITC-SYT16 (peptide)
chain: GSLEMETAFNSRGFED
modifications: also: FITC label, position not given here
Molecule B12 yielded a Kd in [3] of 7.5 µM.

B13: FITC-ATG9A (peptide)
chain: FDTEYQRLEAS
modifications: also: FITC label, position not given here
In the assay with AP2 µ2, B13 had an equilibrium dissociation constant (Kd) of 1.51 µM.

B14: KPNA4 ARM domain (domain or fragment)
chain: GDYRVQNTSLEAIVQNASSDNQGIQLSAVQAARKLLSSDRNPPIDDLIKSGILPILVHCLERDDNPSLQFEAAWALTNIASGTSEQTQAVVQSNAVPLFLRLLHSPHQNVCEQAVWALGNIIGDGPQCRDYVISLGVVKPLLSFISPSIPITFLRNVTWVMVNLCRHKDPPPPMETIQEILPALCVLIHHTDVNILVDTVWALSYLTDAGNEQIQMVIDSGIVPHLVPLLSHQEVKVQTAALRAVGNIVTGTDEQTQVVLNCDALSHFPALLTHPKEKINKEAVWFLSNITAGNQQQVQAVIDANLVPMIIHLLDKGDFGTQKEAAWAISNLTISGRKDQVAYLIQQNVIPPFCNLLTVKDAQVVQVVLDGLSNILKMAEDEAETIGNLIEECGGLEKIEQLQNHENEDIYKLAYEIIDQFFSSDDIDEDPSLVPEAIQGGTFGFNSSANVPTEGFQF
B14: the Kd was 0.003 µM in the assay with FITC-MYC and 0.013 µM in the assay with FITC-NCOR2.

B15: FITC-HIV2_Gag (peptide)
chain: GLIPTAPPAD
modifications: also: FITC label, position not given here
With B15, the Kd with TSG101 UEV domain amounted to 1.9 µM.

The values are drawn from publication PMC10333884 (Molecular Systems Biology, 2023).
